Sequences and labels used below:
B1: FEM1B (parent)
chain: TLAALLLNRSESDIRYLLGYVSQQ
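Further: lentivirally expressed fusions sorted by FACS into six bins by GFP to DsRed ratio, PSI derived from sequencing read proportions per bin multiplied by bin number.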

The series covers variants of B1. Kind of series: protein stability index of a GFP-peptide fusion (GPS, HEK-293T) (PSI 1-6); higher = more stable. The settings on record: c terminus: a fixed tail appended.
As for TLAALLLNRSESDIRYLLGYVSQA, the protein stability index came out at 2.5.
In the case of TLAALLLNRSESDIRYLLGYVSQV, the protein stability index was 1.75.
Regarding TLAALLLNRSESDIRYLLGYVSQN, the protein stability index came out at 2.6.
For TLAALLLNRSESDIRYLLGYVSQK, the protein stability index was found to be 4.32.
Regarding TLAALLLNRSESDIRYLLGYVSQY, the protein stability index came to 2.22.
Take TLAALLLNRSESDIRYLLGYVSQD: the protein stability index stood at 2.
In the case of TLAALLLNRSESDIRYLLGYVSQT, the protein stability index is 3.19.
As to TLAALLLNRSESDIRYLLEYVSQQ, the protein stability index amounted to 2.37.
With TLAALLLNRSESDIRYLLWYVSQQ, the protein stability index came to 1.26.
As for TLAALLLNRSESDIRYLLMYVSQQ, the protein stability index turned out to be 2.35.
For the variant TLAALLLNRSESDIRYLLDYVSQQ, the protein stability index amounted to 2.62.
TLAALLLNRSESDIRYLLFYVSQQ: the protein stability index was determined as 3.44.
With TLAALLLNRSESDIRYLLLYVSQQ, the protein stability index was 2.87.
For TLAALLLNRSESDIRYLLTYVSQQ, the protein stability index stood at 2.4.
For TLAALLLNRSESDIRYLLYYVSQQ, the protein stability index was 3.17.
TLAALLLNRSESDIRYLLIYVSQQ: the protein stability index came out at 3.01.
For the variant TLAALLLNRSESDIRYLLPYVSQQ, the protein stability index amounted to 2.76.
For the variant TLAALLLNRSESDIRYLLQYVSQQ, the protein stability index came to 2.11.
As for TLAALLLNRSESDIRYLLRYVSQQ, the protein stability index came to 3.51.
Consider TLAALLLNRSESDIRYLLHYVSQQ, for which the protein stability index came to 2.78.
Under TLAALLLNRSESDIRYLLSYVSQQ stands 2.71; under TLAALLLNRSESDIRYLLCYVSQQ, 3.34; under TLAALLLNRSESDIRYLLAYVSQQ, 2.38.
For TLAALLLNRSESDIRYLLVYVSQQ, the protein stability index was found to be 3.02.
Take TLAALLLNRSESDIRYLLKYVSQQ: the protein stability index stood at 3.24.
Turning to TLAALLLNRSESDIRYILGYVSQQ, the protein stability index amounted to 1.99.
Regarding TLAALLLNRSESDIRYSLGYVSQQ, the protein stability index was 1.92.
In the case of TLAALLLNRSESDIRYMLGYVSQQ, the protein stability index was 3.53.
As to TLAALLLNRSESDIRYQLGYVSQQ, the protein stability index was determined as 3.77.
For TLAALLLNRSESDIRYGLGYVSQQ, the protein stability index was found to be 2.01.
Regarding TLAALLLNRSESDIRYTLGYVSQQ, the protein stability index was 2.9.
Take TLAALLLNRSESDIRYRLGYVSQQ: the protein stability index came to 2.04.
As for TLAALLLNRSESDIRYPLGYVSQQ, the protein stability index came out at 1.51.
TLAALLLNRSESDIRYWLGYVSQQ: the protein stability index was 2.67.
Under TLAALLLNRSESDIRYKLGYVSQQ stands 1.1; under TLAALLLNRSESDIRYFLGYVSQQ, 2.82; under TLAALLLNRSESDIRYDLGYVSQQ, 1.65.
As for TLAALLLNRSESDIRYCLGYVSQQ, the protein stability index is 3.59.
In the case of TLAALLLNRSESDIRYELGYVSQQ it was 3.04.
In the case of TLAALLLNRSESDIRYNLGYVSQQ, the protein stability index turned out to be 2.24.
For TLAALLLNRSESDIRYHLGYVSQQ, the protein stability index is 1.26.
With TLAALLLNRSESDIRYVLGYVSQQ, the protein stability index came out at 2.98.
As to TLAALLLNRSESDIRYLLGYVSKQ, the protein stability index worked out at 2.87.
With TLAALLLNRSESDIRYLLGYVSPQ, the protein stability index amounted to 1.36.
Consider TLAALLLNRSESDIRYLLGYVSHQ, for which the protein stability index was determined as 2.27.
On to TLAALLLNRSESDIRYLLGYVSSQ, for which the protein stability index worked out at 2.92.
Under TLAALLLNRSESDIRYLLGYVSDQ stands 2.67; under TLAALLLNRSESDIRYLLGYVSIQ, 2.75.
For TLAALLLNRSESDIRYLLGYVSTQ, the protein stability index was 3.07.
Take TLAALLLNRSESDIRYLLGYVSVQ: the protein stability index worked out at 2.77.
In the case of TLAALLLNRSESDIRYLLGYVSLQ, the protein stability index was 1.09.
In the case of TLAALLLNRSESDIRYLLGYVSAQ it was 2.35.
Under TLAALLLNRSESDIRYLLGYVSYQ stands 2.1; under TLAALLLNRSESDIRYLLGYVSFQ, 2.3; under TLAALLLNRSESDIRYLLGYVSCQ, 3.58.
Consider TLAALLLNRSESDIRYLLGYVSRQ, for which the protein stability index was 2.6.
TLAALLLNRSESDIRYLLGYVSMQ: the protein stability index came to 3.68.
For the variant TLAALLLNRSESDIRYLLGYVSGQ, the protein stability index was determined as 2.58.
Under TLAALLLNRSESDIRYLLGYVSEQ stands 3.21.
Turning to TLAALLLNRSESDIRYLLGYVSNQ, the protein stability index worked out at 1.93.
In the case of TLAALLLNRSESDIRYLLGYVVQQ it was 2.25.
In the case of TLAALLLNRSESDIRYLLGYVLQQ, the protein stability index amounted to 3.22.
Consider TLAALLLNRSESDIRYLLGYVIQQ, for which the protein stability index was found to be 2.42.
In the case of TLAALLLNRSESDIRYLLGYVFQQ, the protein stability index amounted to 2.73.
In the case of TLAALLLNRSESDIRYLLGYVGQQ, the protein stability index is 2.98.
For the variant TLAALLLNRSESDIRYLLGYVCQQ, the protein stability index was 2.87.
In the case of TLAALLLNRSESDIRYLLGYVWQQ it was 3.27.
On to TLAALLLNRSESDIRYLLGYVYQQ, for which the protein stability index is 2.7.
TLAALLLNRSESDIRYLLGYVPQQ: the protein stability index worked out at 2.53.
For the variant TLAALLLNRSESDIRYLLGYVNQQ, the protein stability index came out at 1.56.
With TLAALLLNRSESDIRYLLGYVKQQ, the protein stability index worked out at 2.77.
With TLAALLLNRSESDIRYLLGYVAQQ, the protein stability index is 3.04.
Consider TLAALLLNRSESDIRYLLGYVTQQ, for which the protein stability index worked out at 2.5.
With TLAALLLNRSESDIRYLLGYVHQQ, the protein stability index stood at 2.55.
Under TLAALLLNRSESDIRYLLGYVRQQ stands 2.37; under TLAALLLNRSESDIRYLLGYVQQQ, 3.56.
Turning to TLAALLLNRSESDIRYLLGYVDQQ, the protein stability index was 2.48.
TLAALLLNRSESDIRFLLGYVSQQ: the protein stability index is 3.75.
Take TLAALLLNRSESDIRRLLGYVSQQ: the protein stability index turned out to be 2.06.
Under TLAALLLNRSESDIRKLLGYVSQQ stands 2.83.
As for TLAALLLNRSESDIRELLGYVSQQ, the protein stability index came to 2.06.
Consider TLAALLLNRSESDIRDLLGYVSQQ, for which the protein stability index was determined as 2.38.
As to TLAALLLNRSESDIRPLLGYVSQQ, the protein stability index stood at 2.95.
On to TLAALLLNRSESDIRMLLGYVSQQ, for which the protein stability index was 2.45.
Take TLAALLLNRSESDIRTLLGYVSQQ: the protein stability index was found to be 3.16.
For the variant TLAALLLNRSESDIRWLLGYVSQQ, the protein stability index worked out at 4.55.
As to TLAALLLNRSESDIRHLLGYVSQQ, the protein stability index worked out at 1.88.
For the variant TLAALLLNRSESDIRVLLGYVSQQ, the protein stability index was 2.24.
Regarding TLAALLLNRSESDIRNLLGYVSQQ, the protein stability index is 2.17.
Turning to TLAALLLNRSESDIRGLLGYVSQQ, the protein stability index is 3.2.
Consider TLAALLLNRSESDIRLLLGYVSQQ, for which the protein stability index was 2.01.
In the case of TLAALLLNRSESDIRILLGYVSQQ it was 1.57; in that of TLAALLLNRSESDIRQLLGYVSQQ, 3.05; in that of TLAALLLNRSESDIRSLLGYVSQQ, 1.81.

The values above are taken from the supplement of paper PMC10567573.
